Data reported in PMC4116228.
pKd, pKi: −log10 of the molar value. One block for each substance: values may come before it.

How the values were obtained:
[1] = target: Active MMP-2; assay: enzyme inhibition (fluorogenic substrate, Ki by the Morrison equation); Active MMP-2 (0.76 nM) with FLAG-TIMP-1 or FLAG-T2G (0.17 to 13.5 nM), 2 h at 27 C; 50 mM Tris-HCl pH 7.5, 150 mM NaCl, 5 mM CaCl2; substrate MCA-Pro-Leu-Gly-Leu-Dpa-Ala-Arg-NH2
[2] = target: Endogenous LRP-1 of mouse cortical neurons (alpha-chain and beta-chain) (mouse (endogenous in primary cortical neurons))
[3] = target: Endogenous LRP-1 of mouse cortical neurons (alpha-chain and beta-chain) (mouse (endogenous in primary cortical neurons)); remark: listed apart in the source
[4] = target: HA-tagged mini LRP-IV (LRP-1 mini-receptor with ligand-binding domain IV)
[5] = target: HA-tagged mini LRP-II (LRP-1 mini-receptor with ligand-binding domain II)
[6] = target: Recombinant human LRP-1 Fc-tagged mini-domain IV (human); assay: SPR; Fc-DII or Fc-DIV captured by anti-Fc antibody immobilised on a CMD500m chip (around 8 fmol/mm^2); TIMP-1 or EGF 5 to 80 nM injected sequentially (single-cycle kinetics, 2 min at 50 ul/min); 25 C; HBS (50 mM HEPES-NaOH pH 7.4, 150 mM NaCl, 0.005% Tween-20); corrected for Fc-coated flow cell and blank run; 1:1 titration kinetic model; Biacore T200
[7] = target: Recombinant human LRP-1 Fc-tagged mini-domain II (human); assay: as above

- pKi [1]: 7.72
Substance: FLAG-tagged full-length TIMP-1 T2G mutant (from UniProt P01033 24-207) (natural protein)

- pKi [1]: 10.05
- growth cone volume of cortical neurons after 30 min with 10 nM TIMP-1; the increase is prevented by RAP or blocking LRP-1 antibodies [2]: 2.8 fold
Substance: FLAG-tagged wild type TIMP-1 (from UniProt P01033 24-207) (natural protein)

- inhibition by 500 nM RAP of the internalisation of fluo-TIMP-1 by cortical neurons (37 C, pronase-resistant fluorescence) [3]: 2 fold
- internalisation of surface-bound fluo-TIMP-1 (10 nM) by DIV-overexpressing CHO cells after 2 h at 37 C (pronase-resistant fluorescence); significantly impeded by 500 nM RAP [4]: 50%
- internalisation of surface-bound fluo-TIMP-1 (10 nM) by DII-overexpressing CHO cells after 2 h at 37 C (pronase-resistant fluorescence); significantly impeded by 500 nM RAP [5]: 50%
Substance: Fluorescent TIMP-1 (eFluor-conjugated recombinant TIMP-1) (from UniProt P01033 24-207) (natural protein)

- pKd [6]: 7.28
- koff [6]: 0.0135 s⁻¹
- kon [6]: 255000 M⁻¹ s⁻¹
- pKd [7]: 7.95
- koff [7]: 0.021 s⁻¹
- kon [7]: 1.87e+06 M⁻¹ s⁻¹
Substance: Human recombinant TIMP-1 (tissue inhibitor of metalloproteinases-1) (from UniProt P01033 24-207) (natural protein)
